Assays:
[1] = tested on: Kv2.1 R300S (R2S); test: Alpha currents (Iα) of Kv2.1 R2S in Xenopus oocytes, two electrode voltage-clamp; format: cell-based, human; conditions: 1 nM AgTx2, R2S
Excerpt: The coding cDNAs of KV2.1 “wild-type” (hereinafter WT) base construct (hKv2.1-m7-c3 is human Kv2.1, residues 1-858, mutated to confer AgTx2 sensitivity and to remove extracellular cysteine residues) was synthesized (Entelchon GmbH) and cloned into the high expression vector pBSTA.
Mutations Kv2.1 R294N (hereinafter R0N), Kv2.1 R300S (hereinafter R2S), Kv2.1 R294C/R300S (hereinafter R0C/R2S), Kv2.1 R293S/R294S (hereinafter R-1S/R0S), Kv2.1 R293S/R294C (hereinafter R-1S/R0C), Kv2.1 R293S/R294S/R300S (hereinafter R-1S/R0S/R2S), Kv2.1 R293S/R294C/R300S (hereinafter R-1S/R0C/R2S) were introduced using the QuikChange® Lightning Site-Directed Mutagenesis Kit (Stratagene) with mutagenic primers according to the manufacturer's instructions. All constructs were checked by restriction site mapping and sequencing.
Transcripted cRNA was produced using the mMessage mMachine kit (Ambion Inc.). Two to four days past injection of cRNA into stage V-VI Xenopus oocytes (NASCO) potassium currents through the alpha pore (Iα) were recorded with the two electrode voltage-clamp technique making use of a TURBO TEC-05× amplifier (npi electronic GmbH). Currents were filtered at 10 kHz and sampled at 20 kHz. The bath solution contained (in mM): NaCl 96, KCl 2, CaCl2 1, MgCl2 1 and HEPES 5 (pH 7.5). […]

[2] = biological target: Kv1.1 (Homo sapiens, UniProt Q09470); conditions: Table 5; read-out: IC50, channel Kv1.1; cited from earlier work
Kv1.1, sequence (Q09470 whole entry): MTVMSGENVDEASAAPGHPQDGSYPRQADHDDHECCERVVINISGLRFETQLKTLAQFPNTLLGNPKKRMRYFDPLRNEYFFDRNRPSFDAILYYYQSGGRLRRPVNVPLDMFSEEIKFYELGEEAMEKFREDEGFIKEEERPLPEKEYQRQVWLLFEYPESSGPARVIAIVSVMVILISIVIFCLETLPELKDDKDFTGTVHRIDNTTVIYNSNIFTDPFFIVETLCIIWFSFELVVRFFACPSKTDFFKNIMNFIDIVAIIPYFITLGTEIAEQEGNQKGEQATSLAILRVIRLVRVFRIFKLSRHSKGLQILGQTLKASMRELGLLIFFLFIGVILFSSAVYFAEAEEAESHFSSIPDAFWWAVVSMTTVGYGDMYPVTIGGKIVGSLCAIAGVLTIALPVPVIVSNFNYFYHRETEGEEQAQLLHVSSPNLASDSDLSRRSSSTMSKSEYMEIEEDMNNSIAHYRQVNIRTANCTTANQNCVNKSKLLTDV

[3] = biological target: Shaker (Drosophila melanogaster, UniProt P08510, DUP563-563/L584V/Q583H); conditions: Table 5; read-out: IC50, channel Shaker; cited from earlier work
Shaker, sequence (P08510 with tags, fused parts or gaps DUP563-563/Q583H/L584V): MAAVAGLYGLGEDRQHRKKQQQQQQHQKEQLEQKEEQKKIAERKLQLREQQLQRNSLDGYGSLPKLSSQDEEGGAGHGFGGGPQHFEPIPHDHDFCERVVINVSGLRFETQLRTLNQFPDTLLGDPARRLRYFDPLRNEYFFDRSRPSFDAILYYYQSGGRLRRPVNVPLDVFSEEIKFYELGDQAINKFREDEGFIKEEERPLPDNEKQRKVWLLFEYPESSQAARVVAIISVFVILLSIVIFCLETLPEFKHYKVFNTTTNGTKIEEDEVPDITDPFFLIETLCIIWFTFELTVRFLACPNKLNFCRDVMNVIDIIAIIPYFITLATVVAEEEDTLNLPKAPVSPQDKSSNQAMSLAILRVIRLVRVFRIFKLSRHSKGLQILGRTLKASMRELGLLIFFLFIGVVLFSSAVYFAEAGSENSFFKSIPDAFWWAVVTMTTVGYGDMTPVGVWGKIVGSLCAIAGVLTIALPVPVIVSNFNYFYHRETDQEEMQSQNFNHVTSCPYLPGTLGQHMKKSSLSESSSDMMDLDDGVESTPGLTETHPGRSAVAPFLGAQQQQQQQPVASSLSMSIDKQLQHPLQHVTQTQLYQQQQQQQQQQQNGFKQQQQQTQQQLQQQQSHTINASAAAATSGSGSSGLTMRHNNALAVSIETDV

[4] = biological target: T1, Kv2.2 (Homo sapiens, UniProt Q92953); conditions: Table 5; read-out: IC50, channel Kv2.2; cited from earlier work
T1 sequence (Q92953 1-911): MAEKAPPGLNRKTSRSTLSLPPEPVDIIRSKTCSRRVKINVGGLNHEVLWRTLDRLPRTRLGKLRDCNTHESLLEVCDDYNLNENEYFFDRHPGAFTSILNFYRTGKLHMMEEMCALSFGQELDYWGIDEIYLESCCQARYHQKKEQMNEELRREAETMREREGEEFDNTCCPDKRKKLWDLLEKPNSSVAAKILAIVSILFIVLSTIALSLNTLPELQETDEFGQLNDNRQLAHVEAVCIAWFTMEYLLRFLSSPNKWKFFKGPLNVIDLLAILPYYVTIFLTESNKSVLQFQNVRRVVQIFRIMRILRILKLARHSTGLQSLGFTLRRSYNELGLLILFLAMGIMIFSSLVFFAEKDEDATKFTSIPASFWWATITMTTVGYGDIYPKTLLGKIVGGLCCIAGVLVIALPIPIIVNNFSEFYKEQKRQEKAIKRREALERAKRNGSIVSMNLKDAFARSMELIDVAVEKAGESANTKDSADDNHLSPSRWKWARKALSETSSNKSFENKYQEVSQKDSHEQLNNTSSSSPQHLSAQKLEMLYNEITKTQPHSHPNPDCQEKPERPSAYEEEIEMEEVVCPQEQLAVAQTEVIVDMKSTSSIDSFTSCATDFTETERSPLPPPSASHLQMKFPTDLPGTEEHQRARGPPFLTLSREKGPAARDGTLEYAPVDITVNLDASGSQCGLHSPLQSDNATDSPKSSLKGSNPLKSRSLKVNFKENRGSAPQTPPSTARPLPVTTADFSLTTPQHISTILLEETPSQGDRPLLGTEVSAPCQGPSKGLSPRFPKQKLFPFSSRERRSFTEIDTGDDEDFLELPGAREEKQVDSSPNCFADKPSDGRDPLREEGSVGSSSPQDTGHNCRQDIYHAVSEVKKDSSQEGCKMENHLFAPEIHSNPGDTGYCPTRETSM

[5] = biological target: Kv1.2 (Homo sapiens, UniProt P16389); conditions: Table 5; result in words; cited from earlier work
Kv1.2, sequence (P16389 whole entry): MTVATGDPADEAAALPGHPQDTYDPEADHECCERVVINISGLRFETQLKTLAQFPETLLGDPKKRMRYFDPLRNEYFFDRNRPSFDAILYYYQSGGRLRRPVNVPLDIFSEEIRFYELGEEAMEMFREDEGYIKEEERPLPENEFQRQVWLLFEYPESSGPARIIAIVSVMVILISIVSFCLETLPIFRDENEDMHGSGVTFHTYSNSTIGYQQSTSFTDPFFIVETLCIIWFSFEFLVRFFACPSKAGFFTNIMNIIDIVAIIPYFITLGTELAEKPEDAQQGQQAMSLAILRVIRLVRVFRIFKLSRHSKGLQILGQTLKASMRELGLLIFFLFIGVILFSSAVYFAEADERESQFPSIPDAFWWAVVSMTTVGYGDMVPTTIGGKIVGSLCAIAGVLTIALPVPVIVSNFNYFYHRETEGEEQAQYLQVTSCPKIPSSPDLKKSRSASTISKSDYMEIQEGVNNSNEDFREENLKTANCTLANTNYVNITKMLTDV

Substance | Mean inhibition of the maximal outward current at +60 mV [1] | IC50 [2] | IC50 [3] | IC50 [4] | IC50, channel Kv1.2 [5]
Agitotoxin-2 (GVPINVSCTGSPQCIKPCKDAGMRFGKCMNRKCHCTPK) [AgTx2] | 67.8±2.8% | 0.044 nM | 0.64 nM | – | –
Guangxitoxin (EGECGGFWWKCGSGKPACCPKYVCSPKWGLCNFPMP) [GxTx-1E] | – | – | – | 2.6 nM | No effect
